# How the values were obtained:
# [1] = system: AncSZ; assay: phosphorylation enrichment, bacterial display (enrichment ratio); higher = better substrate or ligand; peptides without Tyr show the background
# [2] = target: EPHB1 (UniProt P54762); assay: as above
# [3] = target: EPHB2 (UniProt P29323); assay: as above
# [4] = target: FGFR1 (UniProt P11362); assay: as above
# [5] = target: FGFR3 (UniProt P22607); assay: as above
# [6] = system: Fer (mouse); assay: as above
# [7] = target: Fes (UniProt P07332); assay: as above
# [8] = target: Fyn (UniProt P06241); assay: as above
# [9] = target: Hck (UniProt P08631); assay: as above
# [10] = target: Jak2 (UniProt O60674); assay: as above
# [11] = target: MERTK (UniProt Q12866); assay: as above
# [12] = system: c-Abl (mouse); assay: as above
# [13] = system: c-Src; assay: as above
# [14] = target: Grb2 SH2 (UniProt P62993); assay: SH2 binding enrichment of the phosphorylated peptide, bacterial display (enrichment ratio); higher = better substrate or ligand; peptides without Tyr show the background
# [15] = target: SHP2-C SH2; assay: as above
# [16] = target: c-Src SH2; assay: as above
# 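Throughout, for SH2 binding enrichment of the phosphorylated peptide, bacterial display: peptide library displayed on the E. coli surface as eCPX fusions, selected cells deep-sequenced, score is each peptide's frequency after selection divided by its frequency in the input.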
# 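Throughout, for phosphorylation enrichment, bacterial display: 11-residue human phosphosite peptides and single-mutation variants displayed on the E. coli surface, counted by deep sequencing, each peptide's frequency after selection divided by its frequency in the unselected input library; frequency after pTyr selection over input frequency; kinase dosed for 20-30% of maximal phosphorylation in three min.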
# Chain of Hck (P08631 whole entry, looked up): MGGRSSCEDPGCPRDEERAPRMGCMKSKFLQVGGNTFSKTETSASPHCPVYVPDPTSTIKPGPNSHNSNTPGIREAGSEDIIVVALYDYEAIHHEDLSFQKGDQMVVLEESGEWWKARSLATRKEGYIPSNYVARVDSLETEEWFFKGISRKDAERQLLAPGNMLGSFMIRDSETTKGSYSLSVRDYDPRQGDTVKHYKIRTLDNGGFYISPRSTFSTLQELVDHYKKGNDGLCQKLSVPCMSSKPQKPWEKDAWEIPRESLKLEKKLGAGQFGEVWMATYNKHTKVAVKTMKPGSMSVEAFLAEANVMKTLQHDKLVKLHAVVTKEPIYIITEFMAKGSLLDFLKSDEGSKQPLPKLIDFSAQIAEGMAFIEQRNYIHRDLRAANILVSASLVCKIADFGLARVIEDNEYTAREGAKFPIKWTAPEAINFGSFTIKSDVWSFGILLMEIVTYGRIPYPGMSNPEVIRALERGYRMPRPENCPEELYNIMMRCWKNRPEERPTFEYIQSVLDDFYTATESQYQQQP
# Chain of FGFR3 (P22607 whole entry, looked up): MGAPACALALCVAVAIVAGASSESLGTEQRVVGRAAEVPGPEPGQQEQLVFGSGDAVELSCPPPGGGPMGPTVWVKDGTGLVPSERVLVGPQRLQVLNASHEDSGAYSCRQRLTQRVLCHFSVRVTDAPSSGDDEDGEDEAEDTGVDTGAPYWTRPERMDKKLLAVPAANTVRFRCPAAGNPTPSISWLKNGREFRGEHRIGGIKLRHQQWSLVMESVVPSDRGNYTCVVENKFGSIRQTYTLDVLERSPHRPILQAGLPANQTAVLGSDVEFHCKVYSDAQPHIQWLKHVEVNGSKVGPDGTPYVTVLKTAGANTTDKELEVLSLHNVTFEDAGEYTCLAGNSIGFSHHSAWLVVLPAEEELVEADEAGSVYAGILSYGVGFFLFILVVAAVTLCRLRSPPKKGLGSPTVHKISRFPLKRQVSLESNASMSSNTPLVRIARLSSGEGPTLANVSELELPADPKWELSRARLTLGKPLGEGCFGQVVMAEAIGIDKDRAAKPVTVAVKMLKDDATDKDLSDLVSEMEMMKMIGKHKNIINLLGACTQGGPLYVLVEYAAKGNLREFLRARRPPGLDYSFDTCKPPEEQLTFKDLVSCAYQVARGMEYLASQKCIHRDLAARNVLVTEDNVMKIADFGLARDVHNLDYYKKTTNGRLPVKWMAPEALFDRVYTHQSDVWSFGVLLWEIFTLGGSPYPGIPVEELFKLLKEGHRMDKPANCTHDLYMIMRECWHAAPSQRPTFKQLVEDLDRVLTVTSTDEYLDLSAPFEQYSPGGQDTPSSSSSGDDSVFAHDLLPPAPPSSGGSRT
# Chain of EPHB1 (P54762 whole entry, looked up): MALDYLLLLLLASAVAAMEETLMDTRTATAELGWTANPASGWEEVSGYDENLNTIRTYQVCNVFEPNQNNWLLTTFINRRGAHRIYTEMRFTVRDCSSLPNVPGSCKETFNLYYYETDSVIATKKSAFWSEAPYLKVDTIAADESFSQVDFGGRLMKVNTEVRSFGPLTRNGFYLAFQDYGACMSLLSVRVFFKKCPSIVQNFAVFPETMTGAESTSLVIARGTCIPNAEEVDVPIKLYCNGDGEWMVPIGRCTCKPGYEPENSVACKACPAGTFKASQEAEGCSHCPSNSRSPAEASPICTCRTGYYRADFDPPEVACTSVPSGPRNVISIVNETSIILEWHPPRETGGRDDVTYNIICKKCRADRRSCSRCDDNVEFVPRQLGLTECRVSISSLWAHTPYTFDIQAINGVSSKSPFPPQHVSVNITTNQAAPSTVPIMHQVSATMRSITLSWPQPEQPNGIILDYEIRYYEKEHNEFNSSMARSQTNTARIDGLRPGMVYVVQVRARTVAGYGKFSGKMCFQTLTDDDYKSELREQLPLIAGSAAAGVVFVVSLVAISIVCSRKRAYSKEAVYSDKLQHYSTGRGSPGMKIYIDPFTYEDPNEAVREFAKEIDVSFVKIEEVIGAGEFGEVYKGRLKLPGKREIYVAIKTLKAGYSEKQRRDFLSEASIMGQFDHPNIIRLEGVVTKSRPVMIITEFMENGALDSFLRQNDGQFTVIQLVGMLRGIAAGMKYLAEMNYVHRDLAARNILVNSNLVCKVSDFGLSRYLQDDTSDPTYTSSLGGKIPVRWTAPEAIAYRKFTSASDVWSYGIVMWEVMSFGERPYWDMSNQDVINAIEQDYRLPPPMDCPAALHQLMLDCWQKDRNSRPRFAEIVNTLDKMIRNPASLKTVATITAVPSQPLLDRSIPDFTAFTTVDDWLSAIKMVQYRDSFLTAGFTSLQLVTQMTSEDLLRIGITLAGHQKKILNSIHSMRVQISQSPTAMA
# Chain of Fyn (P06241 whole entry, looked up): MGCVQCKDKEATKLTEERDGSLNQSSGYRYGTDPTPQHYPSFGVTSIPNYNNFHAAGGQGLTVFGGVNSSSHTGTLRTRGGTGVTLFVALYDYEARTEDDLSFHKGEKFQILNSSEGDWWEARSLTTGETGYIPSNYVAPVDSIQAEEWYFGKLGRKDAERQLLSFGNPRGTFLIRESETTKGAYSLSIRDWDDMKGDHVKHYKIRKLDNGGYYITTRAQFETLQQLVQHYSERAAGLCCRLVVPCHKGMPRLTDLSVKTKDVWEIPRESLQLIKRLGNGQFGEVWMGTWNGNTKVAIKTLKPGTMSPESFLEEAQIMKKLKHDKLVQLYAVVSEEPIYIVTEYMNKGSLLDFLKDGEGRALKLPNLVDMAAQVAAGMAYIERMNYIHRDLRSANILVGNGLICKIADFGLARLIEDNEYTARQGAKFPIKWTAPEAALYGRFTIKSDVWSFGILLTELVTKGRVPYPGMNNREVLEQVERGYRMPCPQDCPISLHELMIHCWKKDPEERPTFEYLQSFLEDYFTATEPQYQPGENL
# Chain of Jak2 (O60674 whole entry, looked up): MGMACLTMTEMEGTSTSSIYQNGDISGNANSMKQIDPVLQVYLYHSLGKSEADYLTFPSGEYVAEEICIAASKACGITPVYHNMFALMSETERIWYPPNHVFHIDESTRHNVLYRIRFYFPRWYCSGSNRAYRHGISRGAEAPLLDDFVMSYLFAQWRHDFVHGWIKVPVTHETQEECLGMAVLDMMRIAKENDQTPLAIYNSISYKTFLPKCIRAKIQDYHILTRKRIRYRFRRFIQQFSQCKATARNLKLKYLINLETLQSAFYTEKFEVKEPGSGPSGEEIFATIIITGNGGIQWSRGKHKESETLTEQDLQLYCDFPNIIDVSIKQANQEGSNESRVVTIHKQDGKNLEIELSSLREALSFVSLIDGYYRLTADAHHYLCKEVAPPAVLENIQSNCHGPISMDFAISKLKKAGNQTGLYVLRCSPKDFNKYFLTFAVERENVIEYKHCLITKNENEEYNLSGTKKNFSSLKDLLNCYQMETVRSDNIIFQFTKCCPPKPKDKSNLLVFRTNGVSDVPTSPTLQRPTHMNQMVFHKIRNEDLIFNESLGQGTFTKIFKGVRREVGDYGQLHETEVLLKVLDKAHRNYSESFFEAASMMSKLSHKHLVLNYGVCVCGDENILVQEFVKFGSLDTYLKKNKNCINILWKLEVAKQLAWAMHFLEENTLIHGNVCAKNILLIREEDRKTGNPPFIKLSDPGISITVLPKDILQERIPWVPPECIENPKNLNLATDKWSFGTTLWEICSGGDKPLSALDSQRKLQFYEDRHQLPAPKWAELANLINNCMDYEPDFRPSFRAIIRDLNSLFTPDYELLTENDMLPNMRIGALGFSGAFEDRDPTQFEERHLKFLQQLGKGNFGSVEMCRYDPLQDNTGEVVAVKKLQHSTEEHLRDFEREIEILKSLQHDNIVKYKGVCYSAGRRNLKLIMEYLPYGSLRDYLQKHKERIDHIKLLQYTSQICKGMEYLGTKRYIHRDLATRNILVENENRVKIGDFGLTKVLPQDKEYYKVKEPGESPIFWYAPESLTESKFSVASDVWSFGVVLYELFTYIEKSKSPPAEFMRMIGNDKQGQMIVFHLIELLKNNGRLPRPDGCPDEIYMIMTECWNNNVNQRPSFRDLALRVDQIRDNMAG
# Chain of EPHB2 (P29323 whole entry, looked up): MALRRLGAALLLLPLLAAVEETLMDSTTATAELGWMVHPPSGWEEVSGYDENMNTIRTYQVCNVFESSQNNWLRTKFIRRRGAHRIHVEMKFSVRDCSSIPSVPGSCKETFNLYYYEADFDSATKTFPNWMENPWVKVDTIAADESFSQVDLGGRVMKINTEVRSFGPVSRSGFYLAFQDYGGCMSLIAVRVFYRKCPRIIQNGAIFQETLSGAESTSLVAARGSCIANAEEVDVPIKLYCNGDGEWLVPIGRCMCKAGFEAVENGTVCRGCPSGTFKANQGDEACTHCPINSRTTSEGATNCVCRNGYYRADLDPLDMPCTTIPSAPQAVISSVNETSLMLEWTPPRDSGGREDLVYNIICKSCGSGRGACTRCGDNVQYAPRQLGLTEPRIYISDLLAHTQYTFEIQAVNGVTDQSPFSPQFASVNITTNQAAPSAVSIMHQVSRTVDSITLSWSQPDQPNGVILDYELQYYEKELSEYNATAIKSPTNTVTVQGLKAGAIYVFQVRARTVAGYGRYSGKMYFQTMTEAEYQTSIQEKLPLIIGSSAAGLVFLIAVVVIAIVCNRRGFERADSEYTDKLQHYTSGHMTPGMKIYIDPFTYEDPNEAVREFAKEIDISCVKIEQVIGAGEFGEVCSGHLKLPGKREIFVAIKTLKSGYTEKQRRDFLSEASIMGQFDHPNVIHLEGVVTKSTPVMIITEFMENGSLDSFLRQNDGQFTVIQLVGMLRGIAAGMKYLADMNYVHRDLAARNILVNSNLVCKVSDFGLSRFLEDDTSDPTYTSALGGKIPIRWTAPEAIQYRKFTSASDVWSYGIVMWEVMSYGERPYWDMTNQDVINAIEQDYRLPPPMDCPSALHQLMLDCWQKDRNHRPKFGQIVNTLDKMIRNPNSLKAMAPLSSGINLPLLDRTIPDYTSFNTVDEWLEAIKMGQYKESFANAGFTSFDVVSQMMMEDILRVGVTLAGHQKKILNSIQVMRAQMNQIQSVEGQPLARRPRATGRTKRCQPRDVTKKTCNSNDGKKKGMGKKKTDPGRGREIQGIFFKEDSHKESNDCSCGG
Sequence,SH2 binding enrichment [14],SH2 binding enrichment [15],SH2 binding enrichment [16],phosphorylation enrichment [1],phosphorylation enrichment [2],phosphorylation enrichment [3],phosphorylation enrichment [4],phosphorylation enrichment [5],phosphorylation enrichment [6],phosphorylation enrichment [7],phosphorylation enrichment [8],phosphorylation enrichment [9],phosphorylation enrichment [10],phosphorylation enrichment [11],phosphorylation enrichment [12],phosphorylation enrichment [13]
SDFFAYSPVRE [H6PD_Y449_YF],0.798,1.06,1.37,0.928,0.614,0.591,0.422,0.675,0.821,1.02,0.514,0.68,1.01,0.473,0.615,0.573
SDTGQYQCLVF [AXL_Y115],0.582,0.563,0.449,1.33,0.867,0.9,1.65,1.65,2.7,1.26,2.03,3.09,0.969,1.77,1.86,1.64
SEDSEYYKAFE [CASQ2_Y178],0.827,0.614,0.558,1.71,0.656,0.611,0.58,0.98,0.535,1.16,0.621,0.61,1.17,0.494,0.695,0.698
SEPSGYQDNIA [DES_Y363_A360P],0.743,0.92,0.476,1.02,0.546,0.595,0.488,0.708,0.525,1.05,0.724,0.505,0.953,0.426,0.753,0.47
SETDDYAEIID [PTK2_Y397],1.04,0.627,0.561,1.53,0.877,0.838,0.748,1.01,0.688,1.6,0.573,0.702,1.57,0.625,1.05,0.744
SFGMVYEGNAR [INSR_Y1038],0.879,0.798,0.536,0.629,0.479,0.413,0.41,0.474,0.377,0.775,0.526,0.784,0.672,0.323,0.616,0.966
SHRQDYLVGNK [GSTA1_Y147_G144R],0.55,0.802,0.501,0.441,0.488,0.431,0.324,0.415,0.334,0.665,0.435,0.397,0.466,0.311,0.867,0.385
SIKGKYVTALY [KCNH2_Y611_D609G],0.826,0.776,0.472,0.498,0.366,0.374,0.367,0.357,0.329,0.552,0.432,0.465,0.431,0.358,0.517,0.318
SLAARYFNWVC [FLT4_Y1230_S1235C_YF],2.08,1.59,1.43,1.21,0.61,0.656,0.661,0.822,0.546,1.2,0.38,0.435,0.997,0.514,0.899,0.397
SLAARYYNWVS [FLT4_Y1230],14.2,2.19,3.84,1.06,0.756,0.83,5.38,3.55,0.817,1.15,0.512,0.569,1.48,5.97,0.933,0.746
SLDLSYYTTSS [EMD_Y181_P183T],0.955,0.851,1.58,0.921,0.596,0.601,0.872,0.989,0.462,1.12,0.53,0.576,1.45,0.614,0.976,0.755
SNKLTYGTVVF [ACOX1_Y275_M278V],0.92,4.29,0.597,0.777,0.524,0.725,0.466,0.617,1.01,0.845,8,3.09,0.685,0.416,0.613,5.78
SNNYIYTTLGV [FAM83B_Y639_K640T],0.883,2.71,0.725,1.07,7.5,4.29,6.21,4.56,6.62,1.1,8.37,7.83,1.28,8.17,2.88,5.7
SSSNPYSTVTV [ACTN2_Y599_M604V],0.667,12.3,3.35,0.432,0.342,0.359,0.745,0.483,9.71,0.597,0.733,0.82,0.383,0.464,0.567,1.29
SSVKLYRVFCD [FGB_Y266_P265L_YF],0.665,0.633,0.395,0.945,0.579,0.668,0.487,0.749,0.469,1.12,0.468,0.514,0.935,0.41,0.648,0.47
SSWKLYPRMLR [HAO1_Y50_R46S],0.904,0.803,0.516,0.773,0.457,0.463,0.44,0.472,0.454,0.871,0.404,0.433,0.635,0.432,0.539,0.366

# More lines, main results first:
SH2 binding enrichment [14],SH2 binding enrichment [15],SH2 binding enrichment [16],Sequence,phosphorylation enrichment [1],phosphorylation enrichment [2],phosphorylation enrichment [3],phosphorylation enrichment [4],phosphorylation enrichment [5],phosphorylation enrichment [6],phosphorylation enrichment [7],phosphorylation enrichment [8],phosphorylation enrichment [9],phosphorylation enrichment [10],phosphorylation enrichment [11],phosphorylation enrichment [12],phosphorylation enrichment [13]
0.718,0.644,0.588,SEASYYKSLNL [NGEF_Y289],0.827,0.499,0.56,1.29,0.979,0.497,0.793,0.539,0.643,1.1,0.659,0.615,0.515
0.94,0.393,0.472,SECCKYKIDNP [OSMR_Y689],0.642,0.464,0.416,0.756,0.488,0.407,0.786,0.411,0.381,0.658,0.419,0.539,0.46
1.52,2.02,1.45,SFCFRYRCAAQ [SUMF1_Y344_R349Q_YF],1.25,0.427,0.523,0.47,0.463,0.402,0.762,0.411,0.514,0.745,0.553,0.682,0.555
0.761,0.574,0.404,SGFESYGSSSF [RPA2_Y9_YF],0.591,0.433,0.432,0.443,0.539,0.389,0.601,0.448,0.481,0.436,0.348,0.436,0.368
1.25,1.28,0.978,SHNKFYMLVAH [MFSD8_Y134_R139H_YF],1.42,0.865,0.668,0.652,0.99,0.791,1.35,0.554,0.695,1.18,0.583,0.922,0.447
1.09,1.93,0.556,SLHPGYNFRYA [P2RX7_Y291_Y288H],0.657,0.351,0.497,0.431,0.545,0.442,0.949,0.424,0.492,0.925,0.622,0.637,0.454
1.01,5.5,1.13,SLIDGYFRLTA [JAK2_Y372_YF],1.1,0.539,0.716,0.605,0.875,0.514,1.26,0.493,0.583,5.46,0.429,0.732,0.483
0.949,0.759,0.482,SLNEEYAKNKT [MSH2_Y563_T564A],0.765,0.394,0.579,0.472,0.538,0.318,0.877,0.413,0.362,0.791,0.43,0.674,0.45
1.07,0.71,0.542,SPYAVYLFFTF [RPGRIP1_Y826_R827L],0.928,0.47,0.487,0.446,0.87,0.628,1.08,0.617,0.569,0.783,0.533,0.797,0.748
0.728,0.574,0.447,SPYAVYRFFTF [RPGRIP1_Y826],1.08,0.714,0.555,0.784,0.783,0.875,1.33,1.79,1.21,1.12,0.797,1.67,2.4
0.825,0.606,0.413,SRGLAYPARPA [LEMD2_Y122],0.359,0.328,0.332,0.34,0.266,0.288,0.419,0.331,0.339,0.401,0.339,0.386,0.335
0.869,0.802,0.773,SSAKTYSRMRL [NBEAL2_Y1835_E1833K],0.433,0.354,0.366,0.34,0.394,0.379,0.552,0.406,0.453,0.52,0.4,0.542,0.427
0.984,0.705,0.714,SSDKVCAHQMV [MLH1_Y379_Y379C],0.587,0.379,0.443,0.397,0.536,0.356,0.606,0.388,0.4,0.563,0.859,0.587,0.361
0.812,0.898,1.39,SSQTIYQRVEG [TFR2_Y23_V22I],0.756,1.5,1.41,0.562,0.602,1.24,0.716,0.771,2.71,0.525,2.74,0.814,1.6
0.834,10.7,1.76,SSVAGYACLAF [MVD_Y131_A128V_YF],0.903,0.562,0.537,0.516,0.792,0.511,1.21,0.478,0.556,0.961,0.631,0.949,0.519
0.812,0.553,0.472,STEAIYRRFSK [SH3PXD2B_Y42_YF],0.431,0.334,0.293,0.493,0.408,0.402,0.486,0.506,0.379,0.353,0.372,1.2,0.45
0.718,0.965,0.529,STGWSYAGVAV [KLHL3_Y577_R575W],0.929,0.515,0.454,0.484,0.549,0.616,0.776,0.416,0.581,0.69,0.352,0.463,0.462

# Reference: the supplement of paper PMC10065799, “High-throughput profiling of sequence recognition by tyrosine kinases and SH2 domains using bacterial peptide display” (eLife, 2023)
